For the test, the target named is Type V collagen from human placenta (human) (UniProt P20908). Description: ELISA; type V collagen coated on 96-well plates (10 ug/ml in carbonate coating buffer, overnight 4 °C), blocked with 0.5 % BSA in TBS; about 1.0x10^8 whole bacteria per well, 1 h at 37 °C; adhered bacteria detected with anti-serotype a or anti-serotype b whole-cell polyclonal antibody and HRP secondary; activity normalised to a reference strain set at 100 %. In general terms: In an ELISA, binding on a coated surface is turned into a signal by an enzyme label.
Sequence of UniProt P20908 (P20908 38-1605, chain 1 of 2): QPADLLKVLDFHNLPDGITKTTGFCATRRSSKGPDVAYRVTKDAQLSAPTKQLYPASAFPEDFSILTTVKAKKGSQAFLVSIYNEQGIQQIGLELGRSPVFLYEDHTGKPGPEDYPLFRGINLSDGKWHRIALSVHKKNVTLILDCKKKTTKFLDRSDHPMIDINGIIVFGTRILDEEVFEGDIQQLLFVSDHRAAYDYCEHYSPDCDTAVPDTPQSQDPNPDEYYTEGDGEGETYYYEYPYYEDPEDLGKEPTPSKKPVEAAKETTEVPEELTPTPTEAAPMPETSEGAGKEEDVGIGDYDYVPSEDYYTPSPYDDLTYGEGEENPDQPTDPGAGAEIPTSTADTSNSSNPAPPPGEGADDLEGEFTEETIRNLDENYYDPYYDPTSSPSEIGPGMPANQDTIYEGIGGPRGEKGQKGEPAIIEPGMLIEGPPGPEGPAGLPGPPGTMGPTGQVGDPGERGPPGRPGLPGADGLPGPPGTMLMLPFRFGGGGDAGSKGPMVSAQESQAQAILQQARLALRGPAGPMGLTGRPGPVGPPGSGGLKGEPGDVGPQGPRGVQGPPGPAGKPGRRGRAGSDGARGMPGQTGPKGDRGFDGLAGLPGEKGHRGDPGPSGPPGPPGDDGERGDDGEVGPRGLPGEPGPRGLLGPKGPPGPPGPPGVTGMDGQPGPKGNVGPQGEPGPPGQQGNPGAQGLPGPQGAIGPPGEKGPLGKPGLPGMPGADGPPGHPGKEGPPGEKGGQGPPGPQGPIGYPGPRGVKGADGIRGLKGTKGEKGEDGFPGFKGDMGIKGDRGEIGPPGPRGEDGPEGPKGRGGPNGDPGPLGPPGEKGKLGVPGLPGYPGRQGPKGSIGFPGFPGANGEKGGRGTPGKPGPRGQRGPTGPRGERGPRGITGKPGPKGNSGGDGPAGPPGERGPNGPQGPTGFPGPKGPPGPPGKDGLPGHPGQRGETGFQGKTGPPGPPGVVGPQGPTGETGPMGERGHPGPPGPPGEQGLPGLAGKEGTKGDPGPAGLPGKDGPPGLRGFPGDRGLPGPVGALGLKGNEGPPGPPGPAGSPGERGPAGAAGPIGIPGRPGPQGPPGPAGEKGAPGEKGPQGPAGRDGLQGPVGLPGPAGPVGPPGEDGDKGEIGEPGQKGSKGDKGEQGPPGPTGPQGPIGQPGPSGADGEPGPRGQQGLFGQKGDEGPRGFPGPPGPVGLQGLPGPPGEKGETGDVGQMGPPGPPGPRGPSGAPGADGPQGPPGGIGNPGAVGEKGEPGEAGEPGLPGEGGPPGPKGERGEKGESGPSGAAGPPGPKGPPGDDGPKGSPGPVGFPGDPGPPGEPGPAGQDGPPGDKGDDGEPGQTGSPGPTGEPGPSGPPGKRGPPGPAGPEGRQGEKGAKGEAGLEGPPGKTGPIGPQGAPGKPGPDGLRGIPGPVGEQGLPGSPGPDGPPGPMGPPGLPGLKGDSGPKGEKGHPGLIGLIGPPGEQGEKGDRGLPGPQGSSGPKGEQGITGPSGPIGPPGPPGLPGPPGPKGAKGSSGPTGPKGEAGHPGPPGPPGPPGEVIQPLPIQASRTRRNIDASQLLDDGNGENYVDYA
Sequence of UniProt P20908 (P05997 27-1229, chain 2 of 2, further chain): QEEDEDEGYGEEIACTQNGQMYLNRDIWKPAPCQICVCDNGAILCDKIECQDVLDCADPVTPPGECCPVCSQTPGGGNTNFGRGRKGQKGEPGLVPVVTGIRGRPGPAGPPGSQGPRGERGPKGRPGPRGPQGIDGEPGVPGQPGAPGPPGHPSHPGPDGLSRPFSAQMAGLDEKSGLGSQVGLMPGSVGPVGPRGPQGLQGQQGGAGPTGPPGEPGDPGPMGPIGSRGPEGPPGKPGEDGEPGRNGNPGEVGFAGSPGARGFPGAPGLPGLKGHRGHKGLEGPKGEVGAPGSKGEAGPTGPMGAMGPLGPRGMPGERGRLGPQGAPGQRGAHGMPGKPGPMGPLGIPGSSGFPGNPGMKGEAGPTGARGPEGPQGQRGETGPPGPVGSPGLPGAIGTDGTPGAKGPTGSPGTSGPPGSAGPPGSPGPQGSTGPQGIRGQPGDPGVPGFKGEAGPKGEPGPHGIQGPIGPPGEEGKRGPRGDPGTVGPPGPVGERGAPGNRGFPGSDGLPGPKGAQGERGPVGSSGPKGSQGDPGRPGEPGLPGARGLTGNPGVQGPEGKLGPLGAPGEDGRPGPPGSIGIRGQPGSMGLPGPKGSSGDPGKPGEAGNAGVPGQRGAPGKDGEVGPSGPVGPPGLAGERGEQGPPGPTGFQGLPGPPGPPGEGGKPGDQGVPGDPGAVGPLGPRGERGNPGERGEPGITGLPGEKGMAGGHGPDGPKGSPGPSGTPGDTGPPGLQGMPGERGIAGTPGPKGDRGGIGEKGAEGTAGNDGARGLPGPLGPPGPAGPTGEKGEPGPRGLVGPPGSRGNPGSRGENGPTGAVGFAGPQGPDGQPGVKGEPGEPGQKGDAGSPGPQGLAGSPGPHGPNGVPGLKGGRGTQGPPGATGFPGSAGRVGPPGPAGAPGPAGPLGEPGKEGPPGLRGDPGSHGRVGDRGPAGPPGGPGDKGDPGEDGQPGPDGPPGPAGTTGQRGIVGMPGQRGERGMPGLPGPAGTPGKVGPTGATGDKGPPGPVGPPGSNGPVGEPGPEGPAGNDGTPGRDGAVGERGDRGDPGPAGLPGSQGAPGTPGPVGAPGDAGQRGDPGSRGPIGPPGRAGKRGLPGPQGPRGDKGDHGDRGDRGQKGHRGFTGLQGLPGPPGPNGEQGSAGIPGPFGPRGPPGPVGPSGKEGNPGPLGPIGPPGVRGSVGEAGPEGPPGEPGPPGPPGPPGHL

“a-EmaA (extracellular matrix protein adhesin A, 173 kDa isoform of serotype a) expressed from pKM753 in strain ATCC 29523 (natural protein)” displayed a fold increase in collagen binding over the emaA mutant strain ATCC 29523 of over 2 fold. Regarding “a-EmaA expressed from a plasmid in the serotype b O-PS-deficient rmlC mutant strain (natural protein)”, the fold increase in collagen binding over the rmlC mutant strain is 4.6 fold and the fold of the collagen binding of the serotype b wild-type strain was over 2 fold.

(Values after publication PMC10233464.)
